According to paper PMC9775220, “Distal Mutations Shape Substrate-Binding Sites during Evolution of a Metallo-Oxidase into a Laccase” (ACS Catalysis, 2022):

Substrate: CCn1c(=NN=c2sc3cc(S(=O)(=O)O)ccc3n2CC)sc2cc(S(=O)(=O)O)ccc21
Assay: purified protein
Assay type: biochemical, Aquifex aeolicus
Conditions: pH 4, 40 °C
[1] = 2F4-loop 5 (Met-loop cut to five residues)

Row | Protein | Km (wild-type background) [µM] | kcat (wild-type background) [s⁻¹] | further results
1 | McoA (wild type) (Aquifex aeolicus VF5; DEL329-352/F55S/I199T/I441L/M449T/P58S/R471G) (protein, 43-residue N-terminal Tat signal peptide removed in 2B3wsp and the shuffling parents (stated for wild type); expressed in E. coli Tuner delta-cueO from pET-21a(+); purified, Cu-loaded in vitro; monomer) LSKQSLNIPGYSLFSDGQRVSITAKWTTLEVIPGKSTDMLVYEIDNEYNPVIFLRKGQTFSADFVNNSGEDSIIHWHGFRAPWKSDGHPYYAVKDGETYSYPDFTIIDRSGTYFYHPHPHGRTGYQVYYGLAGMIIIEDEDEDNLKQALDLEYGVTDIPLIIQDKTFDSSGQLVYNPMGHMGFWGDTILVNLTPNPYMDVERKIYRFRILNGSNARPYRLALLRGNQRMRFWVIGVEGGLLDTPKEVNEILVAPGERIDILVDFRDASVNDVIKLYNFPHNLIGMMGMADNSEFEVMEFRVTKDSAYDKSIPQRLSEVTPINTDGAQVQRITLGMRRMVFTINGETWEDGYANPQDINNPKVLFEQNNGDVVILEYVNNTGTYHPMHIHGFQFQVLERSLGPLGATDLGWKDTVIVAPMETVRIAVDMSHPYNEHQIYLLHCHILEHHDEGMMVNYRVNA | – | – | Km [1]: 3800 ± 600 µM; kcat [1]: 133 ± 20 s⁻¹
2 | McoA (wild type) (Aquifex aeolicus VF5; F55S/I199T/I441L/M449T/P58S/R471G) (protein, 43-residue N-terminal Tat signal peptide removed in 2B3wsp and the shuffling parents (stated for wild type); expressed in E. coli Tuner delta-cueO from pET-21a(+); purified, Cu-loaded in vitro; monomer) LSKQSLNIPGYSLFSDGQRVSITAKWTTLEVIPGKSTDMLVYEIDNEYNPVIFLRKGQTFSADFVNNSGEDSIIHWHGFRAPWKSDGHPYYAVKDGETYSYPDFTIIDRSGTYFYHPHPHGRTGYQVYYGLAGMIIIEDEDEDNLKQALDLEYGVTDIPLIIQDKTFDSSGQLVYNPMGHMGFWGDTILVNLTPNPYMDVERKIYRFRILNGSNARPYRLALLRGNQRMRFWVIGVEGGLLDTPKEVNEILVAPGERIDILVDFRDASVNDVIKLYNFPHNLIGMGMIGMRMGMGMERGMGMGNGMNMDMGMADNSEFEVMEFRVTKDSAYDKSIPQRLSEVTPINTDGAQVQRITLGMRRMVFTINGETWEDGYANPQDINNPKVLFEQNNGDVVILEYVNNTGTYHPMHIHGFQFQVLERSLGPLGATDLGWKDTVIVAPMETVRIAVDMSHPYNEHQIYLLHCHILEHHDEGMMVNYRVNA | – | – | Km (evolved variant 2F4): 1500 ± 400 µM; kcat (evolved variant 2F4): 273 ± 9 s⁻¹
3 | McoA (wild type) (Aquifex aeolicus VF5) (protein, 43-residue N-terminal Tat signal peptide removed in 2B3wsp and the shuffling parents (stated for wild type); expressed in E. coli Tuner delta-cueO from pET-21a(+); purified, Cu-loaded in vitro; monomer) LSKQSLNIPGYFLFPDGQRVSITAKWTTLEVIPGKSTDMLVYEIDNEYNPVIFLRKGQTFSADFVNNSGEDSIIHWHGFRAPWKSDGHPYYAVKDGETYSYPDFTIIDRSGTYFYHPHPHGRTGYQVYYGLAGMIIIEDEDEDNLKQALDLEYGVIDIPLIIQDKTFDSSGQLVYNPMGHMGFWGDTILVNLTPNPYMDVERKIYRFRILNGSNARPYRLALLRGNQRMRFWVIGVEGGLLDTPKEVNEILVAPGERIDILVDFRDASVNDVIKLYNFPHNLIGMGMIGMRMGMGMERGMGMGNGMNMDMGMADNSEFEVMEFRVTKDSAYDKSIPQRLSEVTPINTDGAQVQRITLGMRRMVFTINGETWEDGYANPQDINNPKVLFEQNNGDVVIIEYVNNTGMYHPMHIHGFQFQVLERSLGPLRATDLGWKDTVIVAPMETVRIAVDMSHPYNEHQIYLLHCHILEHHDEGMMVNYRVNA | – | – | Km: 1300 ± 200 µM; kcat: 25 ± 3 s⁻¹
4 | McoA (wild type) (Aquifex aeolicus VF5; M449T) (protein, 43-residue N-terminal Tat signal peptide removed in 2B3wsp and the shuffling parents (stated for wild type); expressed in E. coli Tuner delta-cueO from pET-21a(+); purified, Cu-loaded in vitro; monomer) LSKQSLNIPGYFLFPDGQRVSITAKWTTLEVIPGKSTDMLVYEIDNEYNPVIFLRKGQTFSADFVNNSGEDSIIHWHGFRAPWKSDGHPYYAVKDGETYSYPDFTIIDRSGTYFYHPHPHGRTGYQVYYGLAGMIIIEDEDEDNLKQALDLEYGVIDIPLIIQDKTFDSSGQLVYNPMGHMGFWGDTILVNLTPNPYMDVERKIYRFRILNGSNARPYRLALLRGNQRMRFWVIGVEGGLLDTPKEVNEILVAPGERIDILVDFRDASVNDVIKLYNFPHNLIGMGMIGMRMGMGMERGMGMGNGMNMDMGMADNSEFEVMEFRVTKDSAYDKSIPQRLSEVTPINTDGAQVQRITLGMRRMVFTINGETWEDGYANPQDINNPKVLFEQNNGDVVIIEYVNNTGTYHPMHIHGFQFQVLERSLGPLRATDLGWKDTVIVAPMETVRIAVDMSHPYNEHQIYLLHCHILEHHDEGMMVNYRVNA | 1000 ± 100 | 27 ± 1 | –
5 | McoA (wild type) (Aquifex aeolicus VF5; F55S/I199T/I441L/M449T/P58S) (protein, 43-residue N-terminal Tat signal peptide removed in 2B3wsp and the shuffling parents (stated for wild type); expressed in E. coli Tuner delta-cueO from pET-21a(+); purified, Cu-loaded in vitro; monomer) LSKQSLNIPGYSLFSDGQRVSITAKWTTLEVIPGKSTDMLVYEIDNEYNPVIFLRKGQTFSADFVNNSGEDSIIHWHGFRAPWKSDGHPYYAVKDGETYSYPDFTIIDRSGTYFYHPHPHGRTGYQVYYGLAGMIIIEDEDEDNLKQALDLEYGVTDIPLIIQDKTFDSSGQLVYNPMGHMGFWGDTILVNLTPNPYMDVERKIYRFRILNGSNARPYRLALLRGNQRMRFWVIGVEGGLLDTPKEVNEILVAPGERIDILVDFRDASVNDVIKLYNFPHNLIGMGMIGMRMGMGMERGMGMGNGMNMDMGMADNSEFEVMEFRVTKDSAYDKSIPQRLSEVTPINTDGAQVQRITLGMRRMVFTINGETWEDGYANPQDINNPKVLFEQNNGDVVILEYVNNTGTYHPMHIHGFQFQVLERSLGPLRATDLGWKDTVIVAPMETVRIAVDMSHPYNEHQIYLLHCHILEHHDEGMMVNYRVNA | – | – | Km (reversion G471R in 2F4): 6000 ± 1000 µM; kcat (reversion G471R in 2F4): 235 ± 9 s⁻¹
6 | McoA (wild type) (Aquifex aeolicus VF5; F55S) (protein, 43-residue N-terminal Tat signal peptide removed in 2B3wsp and the shuffling parents (stated for wild type); expressed in E. coli Tuner delta-cueO from pET-21a(+); purified, Cu-loaded in vitro; monomer) LSKQSLNIPGYSLFPDGQRVSITAKWTTLEVIPGKSTDMLVYEIDNEYNPVIFLRKGQTFSADFVNNSGEDSIIHWHGFRAPWKSDGHPYYAVKDGETYSYPDFTIIDRSGTYFYHPHPHGRTGYQVYYGLAGMIIIEDEDEDNLKQALDLEYGVIDIPLIIQDKTFDSSGQLVYNPMGHMGFWGDTILVNLTPNPYMDVERKIYRFRILNGSNARPYRLALLRGNQRMRFWVIGVEGGLLDTPKEVNEILVAPGERIDILVDFRDASVNDVIKLYNFPHNLIGMGMIGMRMGMGMERGMGMGNGMNMDMGMADNSEFEVMEFRVTKDSAYDKSIPQRLSEVTPINTDGAQVQRITLGMRRMVFTINGETWEDGYANPQDINNPKVLFEQNNGDVVIIEYVNNTGMYHPMHIHGFQFQVLERSLGPLRATDLGWKDTVIVAPMETVRIAVDMSHPYNEHQIYLLHCHILEHHDEGMMVNYRVNA | 2400 ± 400 | 67 ± 4 | –
7 | McoA (wild type) (Aquifex aeolicus VF5; F55S/I199T/I441L/P58S/R471G) (protein, 43-residue N-terminal Tat signal peptide removed in 2B3wsp and the shuffling parents (stated for wild type); expressed in E. coli Tuner delta-cueO from pET-21a(+); purified, Cu-loaded in vitro; monomer) LSKQSLNIPGYSLFSDGQRVSITAKWTTLEVIPGKSTDMLVYEIDNEYNPVIFLRKGQTFSADFVNNSGEDSIIHWHGFRAPWKSDGHPYYAVKDGETYSYPDFTIIDRSGTYFYHPHPHGRTGYQVYYGLAGMIIIEDEDEDNLKQALDLEYGVTDIPLIIQDKTFDSSGQLVYNPMGHMGFWGDTILVNLTPNPYMDVERKIYRFRILNGSNARPYRLALLRGNQRMRFWVIGVEGGLLDTPKEVNEILVAPGERIDILVDFRDASVNDVIKLYNFPHNLIGMGMIGMRMGMGMERGMGMGNGMNMDMGMADNSEFEVMEFRVTKDSAYDKSIPQRLSEVTPINTDGAQVQRITLGMRRMVFTINGETWEDGYANPQDINNPKVLFEQNNGDVVILEYVNNTGMYHPMHIHGFQFQVLERSLGPLGATDLGWKDTVIVAPMETVRIAVDMSHPYNEHQIYLLHCHILEHHDEGMMVNYRVNA | – | – | Km (reversion T449M in 2F4): 3100 ± 900 µM; kcat (reversion T449M in 2F4): 99 ± 8 s⁻¹
8 | McoA (wild type) (Aquifex aeolicus VF5; I199T) (protein, 43-residue N-terminal Tat signal peptide removed in 2B3wsp and the shuffling parents (stated for wild type); expressed in E. coli Tuner delta-cueO from pET-21a(+); purified, Cu-loaded in vitro; monomer) LSKQSLNIPGYFLFPDGQRVSITAKWTTLEVIPGKSTDMLVYEIDNEYNPVIFLRKGQTFSADFVNNSGEDSIIHWHGFRAPWKSDGHPYYAVKDGETYSYPDFTIIDRSGTYFYHPHPHGRTGYQVYYGLAGMIIIEDEDEDNLKQALDLEYGVTDIPLIIQDKTFDSSGQLVYNPMGHMGFWGDTILVNLTPNPYMDVERKIYRFRILNGSNARPYRLALLRGNQRMRFWVIGVEGGLLDTPKEVNEILVAPGERIDILVDFRDASVNDVIKLYNFPHNLIGMGMIGMRMGMGMERGMGMGNGMNMDMGMADNSEFEVMEFRVTKDSAYDKSIPQRLSEVTPINTDGAQVQRITLGMRRMVFTINGETWEDGYANPQDINNPKVLFEQNNGDVVIIEYVNNTGMYHPMHIHGFQFQVLERSLGPLRATDLGWKDTVIVAPMETVRIAVDMSHPYNEHQIYLLHCHILEHHDEGMMVNYRVNA | 900 ± 200 | 27 ± 5 | –
9 | McoA (wild type) (Aquifex aeolicus VF5; P58S) (protein, 43-residue N-terminal Tat signal peptide removed in 2B3wsp and the shuffling parents (stated for wild type); expressed in E. coli Tuner delta-cueO from pET-21a(+); purified, Cu-loaded in vitro; monomer) LSKQSLNIPGYFLFSDGQRVSITAKWTTLEVIPGKSTDMLVYEIDNEYNPVIFLRKGQTFSADFVNNSGEDSIIHWHGFRAPWKSDGHPYYAVKDGETYSYPDFTIIDRSGTYFYHPHPHGRTGYQVYYGLAGMIIIEDEDEDNLKQALDLEYGVIDIPLIIQDKTFDSSGQLVYNPMGHMGFWGDTILVNLTPNPYMDVERKIYRFRILNGSNARPYRLALLRGNQRMRFWVIGVEGGLLDTPKEVNEILVAPGERIDILVDFRDASVNDVIKLYNFPHNLIGMGMIGMRMGMGMERGMGMGNGMNMDMGMADNSEFEVMEFRVTKDSAYDKSIPQRLSEVTPINTDGAQVQRITLGMRRMVFTINGETWEDGYANPQDINNPKVLFEQNNGDVVIIEYVNNTGMYHPMHIHGFQFQVLERSLGPLRATDLGWKDTVIVAPMETVRIAVDMSHPYNEHQIYLLHCHILEHHDEGMMVNYRVNA | 2500 ± 200 | 75 ± 3 | –
10 | McoA (wild type) (Aquifex aeolicus VF5; I441L) (protein, 43-residue N-terminal Tat signal peptide removed in 2B3wsp and the shuffling parents (stated for wild type); expressed in E. coli Tuner delta-cueO from pET-21a(+); purified, Cu-loaded in vitro; monomer) LSKQSLNIPGYFLFPDGQRVSITAKWTTLEVIPGKSTDMLVYEIDNEYNPVIFLRKGQTFSADFVNNSGEDSIIHWHGFRAPWKSDGHPYYAVKDGETYSYPDFTIIDRSGTYFYHPHPHGRTGYQVYYGLAGMIIIEDEDEDNLKQALDLEYGVIDIPLIIQDKTFDSSGQLVYNPMGHMGFWGDTILVNLTPNPYMDVERKIYRFRILNGSNARPYRLALLRGNQRMRFWVIGVEGGLLDTPKEVNEILVAPGERIDILVDFRDASVNDVIKLYNFPHNLIGMGMIGMRMGMGMERGMGMGNGMNMDMGMADNSEFEVMEFRVTKDSAYDKSIPQRLSEVTPINTDGAQVQRITLGMRRMVFTINGETWEDGYANPQDINNPKVLFEQNNGDVVILEYVNNTGMYHPMHIHGFQFQVLERSLGPLRATDLGWKDTVIVAPMETVRIAVDMSHPYNEHQIYLLHCHILEHHDEGMMVNYRVNA | 1500 ± 200 | 79 ± 5 | –
11 | McoA (wild type) (Aquifex aeolicus VF5; R471G) (protein, 43-residue N-terminal Tat signal peptide removed in 2B3wsp and the shuffling parents (stated for wild type); expressed in E. coli Tuner delta-cueO from pET-21a(+); purified, Cu-loaded in vitro; monomer) LSKQSLNIPGYFLFPDGQRVSITAKWTTLEVIPGKSTDMLVYEIDNEYNPVIFLRKGQTFSADFVNNSGEDSIIHWHGFRAPWKSDGHPYYAVKDGETYSYPDFTIIDRSGTYFYHPHPHGRTGYQVYYGLAGMIIIEDEDEDNLKQALDLEYGVIDIPLIIQDKTFDSSGQLVYNPMGHMGFWGDTILVNLTPNPYMDVERKIYRFRILNGSNARPYRLALLRGNQRMRFWVIGVEGGLLDTPKEVNEILVAPGERIDILVDFRDASVNDVIKLYNFPHNLIGMGMIGMRMGMGMERGMGMGNGMNMDMGMADNSEFEVMEFRVTKDSAYDKSIPQRLSEVTPINTDGAQVQRITLGMRRMVFTINGETWEDGYANPQDINNPKVLFEQNNGDVVIIEYVNNTGMYHPMHIHGFQFQVLERSLGPLGATDLGWKDTVIVAPMETVRIAVDMSHPYNEHQIYLLHCHILEHHDEGMMVNYRVNA | 2300 ± 200 | 98 ± 4 | –
